Results as given in patent US20230038638A1, “COMPLEMENT FACTOR I-RELATED COMPOSITIONS AND METHODS” (published 2023).

What was measured:
human C4b (human) = molecular target: T1, human C4b (human) (UniProt P0C0L5)
T1 sequence: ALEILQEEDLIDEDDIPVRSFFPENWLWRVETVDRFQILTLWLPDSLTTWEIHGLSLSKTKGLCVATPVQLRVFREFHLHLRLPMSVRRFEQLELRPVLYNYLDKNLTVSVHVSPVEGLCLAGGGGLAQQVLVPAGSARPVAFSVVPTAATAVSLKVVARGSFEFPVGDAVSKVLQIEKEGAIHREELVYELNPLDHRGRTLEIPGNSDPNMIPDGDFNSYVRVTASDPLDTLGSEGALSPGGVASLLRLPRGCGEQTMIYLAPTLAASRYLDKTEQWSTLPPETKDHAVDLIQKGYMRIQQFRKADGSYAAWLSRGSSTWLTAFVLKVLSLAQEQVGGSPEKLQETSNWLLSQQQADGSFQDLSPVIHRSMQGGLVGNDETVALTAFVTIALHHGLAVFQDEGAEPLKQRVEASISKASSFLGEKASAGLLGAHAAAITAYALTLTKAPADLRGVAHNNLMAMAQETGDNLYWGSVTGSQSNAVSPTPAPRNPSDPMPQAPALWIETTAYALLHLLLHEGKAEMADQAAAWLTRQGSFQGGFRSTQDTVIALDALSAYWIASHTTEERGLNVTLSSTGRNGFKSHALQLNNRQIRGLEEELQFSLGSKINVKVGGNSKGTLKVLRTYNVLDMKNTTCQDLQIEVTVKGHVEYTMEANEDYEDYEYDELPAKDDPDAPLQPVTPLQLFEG

[1] = molecular target: soluble human C3b (human) (UniProt P01024)

Chain of WT; GGSSGG (SEQ ID NO: 6); CCP_1-4 (enzyme) (chain): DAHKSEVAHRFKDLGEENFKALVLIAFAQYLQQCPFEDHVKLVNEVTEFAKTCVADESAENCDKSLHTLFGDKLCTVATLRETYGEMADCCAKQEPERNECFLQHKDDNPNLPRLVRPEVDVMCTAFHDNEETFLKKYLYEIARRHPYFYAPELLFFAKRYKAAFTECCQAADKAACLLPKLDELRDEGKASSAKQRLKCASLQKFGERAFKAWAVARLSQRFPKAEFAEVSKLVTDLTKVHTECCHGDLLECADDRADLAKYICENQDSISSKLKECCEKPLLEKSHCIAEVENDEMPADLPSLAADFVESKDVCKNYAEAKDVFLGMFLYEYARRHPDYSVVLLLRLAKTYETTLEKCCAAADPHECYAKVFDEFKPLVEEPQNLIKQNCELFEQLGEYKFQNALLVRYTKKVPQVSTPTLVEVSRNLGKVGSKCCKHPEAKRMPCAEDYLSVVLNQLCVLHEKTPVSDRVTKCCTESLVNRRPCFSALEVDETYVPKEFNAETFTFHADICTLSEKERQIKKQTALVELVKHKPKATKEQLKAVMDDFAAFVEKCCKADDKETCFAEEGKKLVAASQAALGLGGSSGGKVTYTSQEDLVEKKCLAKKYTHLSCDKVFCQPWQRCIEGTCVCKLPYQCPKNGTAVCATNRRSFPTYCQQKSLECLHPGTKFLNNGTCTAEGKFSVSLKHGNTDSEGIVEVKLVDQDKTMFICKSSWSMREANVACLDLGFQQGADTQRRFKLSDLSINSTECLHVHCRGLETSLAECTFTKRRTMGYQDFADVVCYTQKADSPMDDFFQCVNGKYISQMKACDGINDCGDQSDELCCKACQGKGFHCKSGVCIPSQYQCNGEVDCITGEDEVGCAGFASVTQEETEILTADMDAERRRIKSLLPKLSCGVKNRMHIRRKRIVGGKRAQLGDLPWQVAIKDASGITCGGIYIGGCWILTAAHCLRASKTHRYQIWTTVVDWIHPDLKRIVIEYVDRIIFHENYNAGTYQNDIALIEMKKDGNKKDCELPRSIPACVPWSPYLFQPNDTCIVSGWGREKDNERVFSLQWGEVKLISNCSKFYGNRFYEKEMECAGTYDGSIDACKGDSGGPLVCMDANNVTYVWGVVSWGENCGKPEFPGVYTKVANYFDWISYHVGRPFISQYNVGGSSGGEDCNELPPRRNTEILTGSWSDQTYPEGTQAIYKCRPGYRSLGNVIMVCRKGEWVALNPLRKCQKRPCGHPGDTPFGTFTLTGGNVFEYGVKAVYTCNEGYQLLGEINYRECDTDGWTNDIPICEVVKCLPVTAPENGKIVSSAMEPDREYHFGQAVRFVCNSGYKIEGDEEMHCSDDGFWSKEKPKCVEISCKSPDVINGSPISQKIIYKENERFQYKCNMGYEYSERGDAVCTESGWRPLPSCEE

| Substance | C4b Screen Ref Fold (fold vs CFI-HSA wild type) (human C4b (human)) | iC3b Screen Ref Fold (fold vs CFI-HSA wild type) [1] | C4b Screen Ref Fold (fold of CFI-HSA wild type) (human C4b (human)) | iC3b Screen Ref Fold (fold of CFI-HSA wild type) [1] |
| --- | --- | --- | --- | --- |
| CFI-HSA N531G; E457G; E461Q; R557A (enzyme) | 4.46 | 0.93 | – | – |
| CFI-HSA variant E38A; D425R (enzyme) | 0.96 | 0.83 | – | – |
| CFI-HSA K424M (enzyme) | 0.33 | 0.95 | – | – |
| CFI-HSA variant E457G; N531G; WT; GGSSGG (SEQ ID NO: 6); CR1(ccp15-17) (from UniProt P17927) (enzyme) | – | – | 4.95 | 0.15 |
| CFI-HSA K424Q (enzyme) | 0.47 | 1.27 | – | – |
| CFI-HSA variant N159Q (enzyme) | 0.75 | 2.21 | – | – |
| CFI-HSA R557Q (enzyme) | 2.12 | 0.08 | – | – |
| CFI-HSA R557E (enzyme) | 1.15 | -0.02 | – | – |
| CFI-HSA variant E530G (enzyme) | -0.02 | 0.12 | – | – |
| CFI-HSA Y553V (enzyme) | 0.37 | 1.1 | – | – |
| CFI-HSA E457G; N531G; E530Y (enzyme) | 4.22 | 1.67 | – | – |
| CFI-HSA R557T (enzyme) | 1.63 | 0.09 | – | – |
| WT; GGSSGG (SEQ ID NO: 6); CCP_1-4 (enzyme) | 0.21 | 0.02 | – | – |
| CFI-HSA F537G (enzyme) | 0.03 | 0.37 | – | – |
| CFI-HSA variant W381K (enzyme) | 0 | 0.02 | – | – |
| CFI-HSA Y408L; E457G; E461Q; R462K; N531G; GGSSGG (SEQ ID NO: 6); CR1 (ccp15-17) (from UniProt P17927) (enzyme) | 1.84 | 0.18 | – | – |
| CFI-HSA variant S507A; GGSSGG (SEQ ID NO: 6); CR1(ccp15-17) (from UniProt P17927) (enzyme) | – | – | -0.01 | -0.01 |

| Substance | C4b Screen Ref Fold (fold vs CFI-HSA wild type) (human C4b (human)) | iC3b Screen Ref Fold (fold vs CFI-HSA wild type) [1] | C4b Screen Ref Fold (fold of CFI-HSA wild type) (human C4b (human)) | iC3b Screen Ref Fold (fold of CFI-HSA wild type) [1] |
| --- | --- | --- | --- | --- |
| CFI-HSA K423E (enzyme) | 0.32 | 0.61 | – | – |
| CFI-HSA R557N (enzyme) | 1.87 | 0.05 | – | – |
| CFI-HSA variant Y408L; D425K (enzyme) | – | – | 1.29 | 1.14 |
| CFI-HSA E457G; E461Q; R557A (enzyme) | 4.5 | 1.29 | – | – |
| CFI-HSA variant K14E; E487K (enzyme) | – | – | 0.7 | 1.43 |
| CFI-HSA Y408L; N531G; E530Y (enzyme) | 2.25 | 2.11 | – | – |
| CFI-HSA S527G (enzyme) | 0.09 | 0.16 | – | – |
| CFI-HSA R365N (enzyme) | 0.1 | 0.04 | – | – |
| CFI-HSA D549F (enzyme) | 0.05 | 0.22 | – | – |
| CFI-HSA K423A (enzyme) | 0.11 | 0.23 | – | – |
| CFI-HSA T377G; N531G (enzyme) | 4.53 | 2.34 | – | – |
| CFI-HSA variant Y408L; P535G; P558S (enzyme) | – | – | 0.04 | 0.24 |
| CFI-HSA Y553I (enzyme) | 0.51 | 1.06 | – | – |
| CFI-HSA D549N (enzyme) | 1.08 | 1.48 | – | – |
| CFI-HSA variant P535G; P558S (enzyme) | – | – | 0.2 | 0.25 |
| CFI-HSA variant Y408L; P558S (enzyme) | – | – | 0.31 | 0.86 |

Second part, the substance after the results:

| C4b Screen Ref Fold (fold vs CFI-HSA wild type) (human C4b (human)) | iC3b Screen Ref Fold (fold vs CFI-HSA wild type) [1] | C4b Screen Ref Fold (fold of CFI-HSA wild type) (human C4b (human)) | iC3b Screen Ref Fold (fold of CFI-HSA wild type) [1] | Substance |
| --- | --- | --- | --- | --- |
| 3.27 | 0.16 | – | – | CFI-HSA R557I (enzyme) |
| 1.61 | 0.04 | – | – | CFI-HSA R557G (enzyme) |
| 0.63 | 0.74 | – | – | CFI-HSA R365Y (enzyme) |
| – | – | 5.3 | 0.05 | CFI-HSA variant N531G; WT; GGSSGG (SEQ ID NO: 6); CR1(ccp15-17) (from UniProt P17927) (enzyme) |
| 0.42 | 0.95 | – | – | CFI-HSA K424Y (enzyme) |
| 0.25 | 0.68 | – | – | CFI-HSA D549W (enzyme) |
| 0.5 | 1.48 | – | – | CFI-HSA K424N (enzyme) |
| 0.3 | 0.19 | – | – | CFI-HSA variant P535G (enzyme) |
| 1.08 | 0.53 | – | – | CFI-HSA D549P (enzyme) |
| 0.52 | 1.1 | – | – | CFI-HSA Y553A (enzyme) |
| 0.26 | 0.5 | – | – | CFI-HSA R327G (enzyme) |
| 2.99 | 2.08 | – | – | CFI-HSA Y408L; N531G; D425R; E530Y (enzyme) |
| 0.03 | -0.02 | – | – | CFI-HSA H362G (enzyme) |
| – | – | 1.58 | 0.59 | CFI-HSA variant Y553H; F559L; V565I; P558S (enzyme) |
| – | – | 5.42 | -0.01 | CFI-HSA variant E457G; E461Q; R462K; F464Y; N531G; GGSSGG (SEQ ID NO: 6); CR1(ccp15-17) (from UniProt P17927) (enzyme) |
| 0.6 | 0.16 | – | – | CFI-HSA R365L (enzyme) |
| 0.18 | 0.64 | – | – | CFI-HSA R365Q (enzyme) |
| 5.37 | 0.78 | – | – | CFI-HSA E457G; N531G; D425R; E530Y (enzyme) |
| – | – | 1.73 | -0.04 | CFI-HSA variant E457G; GGSSGG (SEQ ID NO: 6); CR1(ccp1-3) (from UniProt P17927) (enzyme) |
| – | – | 0.43 | 0.49 | CFI-HSA variant F559L; V565I; P558S (enzyme) |
| 0.25 | 0.03 | – | – | WT; GGSSGG (SEQ ID NO: 6); CCP_1-5; GGSS(3) + GGG; compstatin (enzyme) |
| – | – | 3.53 | 0.14 | CFI-HSA variant N531G; P535A; GGSSGG (SEQ ID NO: 6); CR1(ccp15-17) (from UniProt P17927) (enzyme) |
| 4.1 | 1.08 | – | – | CFI-HSA Y408L; E457G; N531G; D425R; E530Y (enzyme) |
| – | – | 0.89 | 1.32 | CFI-HSA variant S552G; V565I; P558S (enzyme) |
| 0.07 | 0.15 | – | – | CFI-HSA variant 420-DGNK (SEQ ID NO: 15)-424 --> GG (enzyme) |
| – | – | 0.93 | 0.44 | CFI-HSA variant S552G; F559L; P558S (enzyme) |
| 2.74 | 0.02 | – | – | CFI-HSA Y408L; E457G; R462K; F464Y; N531G; GGSSGG (SEQ ID NO: 6); CR1 (ccp15-17) (from UniProt P17927) (enzyme) |
| – | – | 0.77 | 0.35 | CFI-HSA variant Y553F; F559L (enzyme) |
| 4.29 | 1.73 | – | – | CFI-HSA E457G; D425R; E530Y (enzyme) |
| 0.07 | 0.24 | – | – | CFI-HSA variant Y408R (enzyme) |
